Assay results reported in patent US20240270854A1 (Stanford University, published 2024).

Key:
[1] = target: BMPR2 on skeletal stem cells; test: cell-based or functional assay
[2] = target: BMPR1a on skeletal stem cells; test: cell-based or functional assay
Sequence of BMPR1a on skeletal stem cells (P36894 whole entry): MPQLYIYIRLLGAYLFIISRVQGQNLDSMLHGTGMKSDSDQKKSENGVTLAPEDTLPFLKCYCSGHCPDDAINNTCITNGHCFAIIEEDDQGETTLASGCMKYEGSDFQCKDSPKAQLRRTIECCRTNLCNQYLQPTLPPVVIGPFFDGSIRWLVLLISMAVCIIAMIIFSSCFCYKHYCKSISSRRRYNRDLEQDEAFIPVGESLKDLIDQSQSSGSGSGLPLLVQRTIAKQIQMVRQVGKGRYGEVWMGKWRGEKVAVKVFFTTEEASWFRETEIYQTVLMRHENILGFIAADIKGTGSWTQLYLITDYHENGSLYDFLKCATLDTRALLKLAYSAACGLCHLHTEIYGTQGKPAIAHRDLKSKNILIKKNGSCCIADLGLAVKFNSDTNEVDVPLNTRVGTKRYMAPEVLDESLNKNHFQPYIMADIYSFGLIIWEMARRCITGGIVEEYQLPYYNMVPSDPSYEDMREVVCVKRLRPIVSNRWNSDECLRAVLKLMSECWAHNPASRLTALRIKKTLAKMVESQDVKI

Sequence of BMPR2 on skeletal stem cells (Q13873 whole entry): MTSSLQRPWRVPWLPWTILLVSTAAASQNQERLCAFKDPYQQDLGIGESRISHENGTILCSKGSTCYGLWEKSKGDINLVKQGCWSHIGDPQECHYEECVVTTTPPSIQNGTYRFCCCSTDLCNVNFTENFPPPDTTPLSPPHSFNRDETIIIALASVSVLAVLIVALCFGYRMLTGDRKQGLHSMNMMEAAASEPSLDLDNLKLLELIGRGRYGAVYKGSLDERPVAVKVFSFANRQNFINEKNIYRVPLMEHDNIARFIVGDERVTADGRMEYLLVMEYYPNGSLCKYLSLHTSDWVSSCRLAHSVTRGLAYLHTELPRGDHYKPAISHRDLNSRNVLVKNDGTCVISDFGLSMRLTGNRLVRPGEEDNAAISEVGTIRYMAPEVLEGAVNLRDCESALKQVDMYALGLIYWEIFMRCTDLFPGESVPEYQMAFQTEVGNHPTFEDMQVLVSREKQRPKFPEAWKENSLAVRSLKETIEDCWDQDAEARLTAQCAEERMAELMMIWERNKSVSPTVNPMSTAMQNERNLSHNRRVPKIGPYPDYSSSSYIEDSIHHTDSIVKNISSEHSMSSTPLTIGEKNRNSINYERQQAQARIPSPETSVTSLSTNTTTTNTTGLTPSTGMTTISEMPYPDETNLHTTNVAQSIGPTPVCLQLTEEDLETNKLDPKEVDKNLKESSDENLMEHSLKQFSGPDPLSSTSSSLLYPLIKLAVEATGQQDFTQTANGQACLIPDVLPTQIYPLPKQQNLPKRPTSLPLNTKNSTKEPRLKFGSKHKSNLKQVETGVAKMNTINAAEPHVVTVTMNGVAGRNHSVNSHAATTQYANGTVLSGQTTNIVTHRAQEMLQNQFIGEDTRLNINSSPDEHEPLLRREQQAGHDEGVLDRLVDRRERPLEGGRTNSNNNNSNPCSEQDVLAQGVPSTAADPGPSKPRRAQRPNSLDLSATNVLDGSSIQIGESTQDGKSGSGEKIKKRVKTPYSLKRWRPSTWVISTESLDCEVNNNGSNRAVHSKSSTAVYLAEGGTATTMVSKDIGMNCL

p-smad1/5 signaling in SSCs after 30 minutes treatment [1]: 3 folds higher activation than control
p-smad1/5 signaling in SSCs after 30 minutes treatment [2]: 3 folds higher activation than control
B1: (NB1-4)-(NB2-43) (bispecific antibody)
chain: QVQLQESGGGLVQAGGSLRLSCAASGTIFYFSIMGWYRQAPGKEREFVAGIGVGSNTYYADSVKGRFTISRDNAKNTVYLQMNSLKPEDTAVYYCAAFDSISGELQYWGQGTQVTVSSGGGGSGGGQVQLQESGGGLVQAGGSLRLSCAASGSISSATVMGWYRQAPGKEREFVAAITAGGTTNYADSVKGRFTISRDNAKNTVYLQMNSLKPEDTAVYYCAVVVFTSQDRIYYYRYWGQGTQVTVSS
